Data taken from patent publication EP4674869A1 (Immuneoncia Therapeutics, Inc., dated 2026).

Assays:
CD47 [1] = molecular target: T1, CD47 (UniProt Q08722 19-323, limits assumed); assay: binding to Raji cancer cells; method not stated
T1 construct: whole, on cells; also called CD47 on cancer cells (MDA-MB-231, Raji)

CD47 [2] = molecular target: T1, CD47; assay: binding to MDA-MB-231 cancer cells; method not stated

T1 sequence (Q08722 19-323 limits assumed): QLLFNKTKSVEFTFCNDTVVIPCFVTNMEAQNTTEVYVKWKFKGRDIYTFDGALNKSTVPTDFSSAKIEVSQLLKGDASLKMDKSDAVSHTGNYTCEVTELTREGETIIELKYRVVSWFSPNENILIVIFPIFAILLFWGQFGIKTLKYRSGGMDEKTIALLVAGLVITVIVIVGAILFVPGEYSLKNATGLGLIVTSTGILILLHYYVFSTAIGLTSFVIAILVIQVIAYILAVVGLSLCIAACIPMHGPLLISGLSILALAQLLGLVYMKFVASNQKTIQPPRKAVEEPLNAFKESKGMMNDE

- EC50 (CD47 [1]): 4.77 µg/mL
- EC50 (CD47 [2]): 5.73 µg/mL
B1: IMC-002 (antibody, human IgG4 S228P, lambda, V domains shown)
VH: QVQLVQSGAEVKKPGASVKVSCKASGYTFTSYYMHWVRQAPGQGLEWMGIINPSGGSTSYAQKFQGRVTMTRDTSTSTVYMELSSLRSEDTAVYYCARSTLWVSEFDYWGQGTLVTVSS
VL: QSALTQPASVSGSPGQSISISCTGTSSDVGGHNYVSWYQQHPGKAPKLMIYDVRNRPSGVSNRFSGSKSGSTASLTISGLQTEDEADYYCNSYTGSRTYVFGSGTKLTVLG
notes: Fully human IgG4 kappa antibody with an S228P hinge mutation; also called anti-CD47 antibody; C47B10-H3-D4
